The chains are these.
B1: Hairpin Ribozyme (parent)
chain: GUCCUCUUUCACGUGCGCGUGAAAGAGAGAAGUGAACCAGAGAAACACACGUUGUGGUAUAUUACCUGGUA

Variants of B1 are the subject of this series. The experiment in a line: self-cleavage, relative activity (ratio to wild type); higher = more cleavage; co-transcriptional.
Consider A24G U58G, for which the self-cleavage amounted to 0.517. As for C38G C46G, the self-cleavage was 0.161. For U5G A41U the value was 0.607; for U9G C48A, 0.12; for G29C U53G, 0.0421. Regarding U2G U63A, the self-cleavage turned out to be 0.149. Take C38A U67C: the self-cleavage came to 0.0697.

Regarding U7A A11U, the self-cleavage was 0.649. For U55A U67G, the self-cleavage is 0.27.

A22G G42C: the self-cleavage came out at 0.365. For G1U U20C the value was 0.203; for U20C A31G, 0.469; for A23U G29U, 0.142. On to U14C A71G, for which the self-cleavage is 1.24.

For A22G G54U, the self-cleavage came to 0.423. For the variant G27C C48G, the self-cleavage is 0.164. Take C37A G42U: the self-cleavage worked out at 0.165. With U7C U53A, the self-cleavage worked out at 1.3.

With A28C C38G, the self-cleavage was found to be 0.194. Turning to U33G C48G, the self-cleavage amounted to 0.209. For G1U U5G, the self-cleavage was found to be 0.194. With G15U U58G, the self-cleavage came to 0.711. In the case of A24G U60A, the self-cleavage turned out to be 0.861. As to A31C C65G, the self-cleavage is 0.116. U7G G34U: the self-cleavage is 1.22.

On to U14G A61C, for which the self-cleavage was determined as 0.257. Consider A35G G54C, for which the self-cleavage amounted to 0.444.

Regarding G15A G27C, the self-cleavage came out at 0.146. On to U2C U9G, for which the self-cleavage was found to be 0.0171. For C10U U58C the value was 0.771; for G21C A45C, 0.276. Take C6U G19U: the self-cleavage was 0.715. A31G C65U: the self-cleavage came to 0.252. With U20G C50G, the self-cleavage amounted to 0.225. In the case of C6U A45G, the self-cleavage came out at 0.135. G1A C3A: the self-cleavage was 0.115.

In the case of C16U G27U, the self-cleavage was 0.198. For U33G G40C the value was 0.0649; for U5A U55C, 0.157; for A39C G51U, 0.64. For the variant C3U A28U, the self-cleavage was determined as 0.582. With U8G G51C, the self-cleavage was 0.665. Regarding U62A U67G, the self-cleavage is 0.173. As to G51U A61U, the self-cleavage was 0.25.

As to A23G A43U, the self-cleavage is 0.184.

In the case of A24C U58G, the self-cleavage was found to be 0.761. For the variant G13A A22G, the self-cleavage was determined as 0.676. Turning to A36C A59U, the self-cleavage was 0.157. On to U2C C16U, for which the self-cleavage is 0.163. As for U7C G29A, the self-cleavage was 0.204.

Consider C66A A71C, for which the self-cleavage amounted to 0.445. Turning to G27A A47U, the self-cleavage came to 0.111. As to G15A A24C, the self-cleavage stood at 0.899. U20G A45G: the self-cleavage was 0.128.

Regarding U14G A22G, the self-cleavage worked out at 0.798. G1A G69C: the self-cleavage amounted to 0.137. As to U20C G32C, the self-cleavage was found to be 0.0574. On to C10U G32C, for which the self-cleavage was found to be 0.17. To A49G U63G belongs 0.158; to G15C C46U, 0.151; to G1A A71C, 0.435.

For the variant A35G U63G, the self-cleavage was 0.221. As to U9A C18G, the self-cleavage amounted to 0.617.

Take A26C G51C: the self-cleavage worked out at 0.714. For A47C A49C the value was 0.204.

With G13U A39G, the self-cleavage stood at 0.273.

Regarding A28C G29C, the self-cleavage turned out to be 0.204. Turning to A24U C48G, the self-cleavage was 0.245. Turning to U55G U62G, the self-cleavage was 0. G68C U70G: the self-cleavage is 0.576.

In the case of A41U U62A, the self-cleavage stood at 0.143. With U7A A71U, the self-cleavage is 0.814. On to G29U C65U, for which the self-cleavage worked out at 0.105. In the case of G13C A45C, the self-cleavage was 0.145. To C16U A24G belongs 0.997. Regarding C12A A64U, the self-cleavage was 0.176.

As for A59C U62A, the self-cleavage amounted to 0.159.

In the case of A30C U53C, the self-cleavage is 0.203. On to G15U A64G, for which the self-cleavage amounted to 0.657.

Consider G21U A43G, for which the self-cleavage came out at 0.282.

On to U14C C65U, for which the self-cleavage was 0.295.

G27A C46A: the self-cleavage amounted to 0.103. To G17U U53C belongs 0.828; to C18A U60A, 1.02. Regarding A26U U60G, the self-cleavage was 0.437. Regarding A23U U55A, the self-cleavage turned out to be 0.255. Turning to G13A G15C, the self-cleavage was 0.753.

In the case of G13U A45U, the self-cleavage came out at 0.136. Consider A28G A43U, for which the self-cleavage turned out to be 0.123. Take U58C U62A: the self-cleavage stood at 0.24. For C4G U33C the value was 0.0651; for G56A U63G, 0.0781; for C4A U70A, 0.25. G68C: the self-cleavage worked out at 0.212. In the case of C46G A61G, the self-cleavage was determined as 0.126. In the case of U5C U55G, the self-cleavage amounted to 0.351. Consider C16A A44G, for which the self-cleavage came out at 0.153. For the variant G17A G29U, the self-cleavage worked out at 0.113. In the case of A11G G56A, the self-cleavage came out at 0.229. In the case of C12U C66U, the self-cleavage stood at 0.514. G17C: the self-cleavage is 0.751. Regarding C10G U14C, the self-cleavage came out at 0.573. In the case of G57U A64C, the self-cleavage turned out to be 0.139. Turning to C6U G69A, the self-cleavage was 0.379. Turning to A22G G57U, the self-cleavage stood at 0.305. For C46A G69A, the self-cleavage amounted to 0.13.

With G32C G57A, the self-cleavage worked out at 0.0977.

As to C6A U62G, the self-cleavage is 0.0891. To A26G C48G belongs 0.14; to G21U U55C, 0.288; to C37A U53C, 0.515.

Take C18A G19A: the self-cleavage is 0.886.

For G21A G32A, the self-cleavage came to 0.193. For U5C A35C, the self-cleavage was 0.732. For A44U C48A, the self-cleavage came to 0.124. With G13U G57U, the self-cleavage is 0.202.

For the variant G17C A41G, the self-cleavage came out at 0.591. For A28C U67A the value was 0.135.

With G34C G69C, the self-cleavage came out at 0.564.

For the variant C3G U7G, the self-cleavage came out at 0.281. To A45U G57A belongs 0.17; to C16G G54U, 0.493. For C16G G54A the value was 0.485.

Consider U7G U62A, for which the self-cleavage came to 0.101. U55G G68U: the self-cleavage is 0.139. In the case of U20C A71U, the self-cleavage was found to be 0.79. In the case of U5A U8C, the self-cleavage was found to be 0.141. For U7G G57U, the self-cleavage was found to be 0.175.

A35C A59U: the self-cleavage came out at 0.105. As for U7G A44G, the self-cleavage came out at 0.16. For A44G A64U the value was 0.102.

For G42U C50G, the self-cleavage worked out at 0.26. With U52G A61G, the self-cleavage came out at 0.163. Turning to A11C A35G, the self-cleavage was determined as 0.837. As to A11G A24C, the self-cleavage is 0.746. Regarding U5C A23G, the self-cleavage stood at 0.683.

Turning to C4G C16A, the self-cleavage was found to be 0.304. With A24G G34C, the self-cleavage worked out at 1.34. As for G40A U53C, the self-cleavage turned out to be 0.46. Turning to C4U A22U, the self-cleavage was 0.362. With C18U U53A, the self-cleavage was found to be 1. On to G25U G29A, for which the self-cleavage is 0.149.

As for A23C A43G, the self-cleavage came out at 0.0715.

Regarding A24C G42A, the self-cleavage was determined as 0.195. Turning to U5C C66G, the self-cleavage was 0.113. For the variant A35G A61G, the self-cleavage worked out at 0.185. Consider U8C U53A, for which the self-cleavage stood at 0.674.

For C6U U52G, the self-cleavage was 0.797. Take G34U G42A: the self-cleavage was 0.883. To G17U G34A belongs 1.24; to A24C A28U, 0.592; to G17A G32A, 0.105.

Regarding U2G G40A, the self-cleavage came to 0.105. Regarding C4U U63G, the self-cleavage is 0.103. Consider G32U G57A, for which the self-cleavage came to 0.139. As to A24C A59C, the self-cleavage is 0.209.

With C38A U52A, the self-cleavage was 0.41. Consider C37U G40C, for which the self-cleavage came out at 0.172. To G1U G56A belongs 0.127; to G54C C66A, 0.169; to G21A C37A, 0.269. Regarding C10A U60G, the self-cleavage came to 0.377. As to G17U G32C, the self-cleavage was 0.137. For the variant A43C G68A, the self-cleavage was found to be 0.176.

As for G17C G54A, the self-cleavage was 0.36. On to C12U U62C, for which the self-cleavage turned out to be 0.27. To A61C G69C belongs 0.0992.

These data come from the RNAGym collection of RNA variant scans (doi:10.7554/elife.80360).
